Ends that are not written are not given here.
T1: NRP-1 (control protein in the fluorescence polarization assay) (UniProt O14786 273-586, limits assumed)
T1 construct: also called neuropilin-1
T1 sequence (looked up): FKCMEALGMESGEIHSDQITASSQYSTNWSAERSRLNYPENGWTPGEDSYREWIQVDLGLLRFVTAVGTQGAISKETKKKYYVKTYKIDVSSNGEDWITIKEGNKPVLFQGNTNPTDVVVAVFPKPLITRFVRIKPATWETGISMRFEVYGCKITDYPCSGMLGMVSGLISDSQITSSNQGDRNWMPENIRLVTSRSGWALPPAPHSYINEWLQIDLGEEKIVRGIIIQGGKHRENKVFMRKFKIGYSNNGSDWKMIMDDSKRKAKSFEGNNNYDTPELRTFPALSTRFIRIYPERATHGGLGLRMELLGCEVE

T2: ligand-binding b1b2 domain of the cell and tissue penetration receptor NRP-1 (UniProt O14786 273-586, limits assumed)
T2 construct: domain: b1b2; Coated on magnetic beads; also called NRP-1 b1b2; NRP-1 b1b2 domain
T2 sequence (looked up): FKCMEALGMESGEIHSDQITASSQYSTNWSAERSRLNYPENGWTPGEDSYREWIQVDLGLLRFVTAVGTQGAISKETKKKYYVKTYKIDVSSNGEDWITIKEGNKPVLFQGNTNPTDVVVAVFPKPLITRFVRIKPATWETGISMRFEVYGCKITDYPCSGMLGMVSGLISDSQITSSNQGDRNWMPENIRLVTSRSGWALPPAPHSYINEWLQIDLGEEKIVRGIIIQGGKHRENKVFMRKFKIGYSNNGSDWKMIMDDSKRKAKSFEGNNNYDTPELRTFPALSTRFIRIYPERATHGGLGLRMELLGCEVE

T3: recombinant 6x-His-tagged p32 protein (gC1qR/p32) (UniProt Q07021 74-282)
T3 construct: Predominantly (>97%) a trimer by sedimentation velocity; also called gC1q/p32 receptor; recombinant p32
T3 sequence (looked up): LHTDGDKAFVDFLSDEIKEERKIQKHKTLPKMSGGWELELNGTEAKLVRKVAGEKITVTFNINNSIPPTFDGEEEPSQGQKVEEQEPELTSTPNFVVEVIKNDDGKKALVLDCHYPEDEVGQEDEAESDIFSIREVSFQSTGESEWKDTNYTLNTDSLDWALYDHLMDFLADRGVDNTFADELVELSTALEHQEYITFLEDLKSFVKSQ


Legend:
[1] = target: T1, NRP-1 (control protein in the …); assay: fluorescence polarization assay with synthetic peptide, NRP-1 as control protein
[2] = target: T2, ligand-binding b1b2 domain of the cell …; assay: T7 phage clone binding to protein-coated magnetic beads
BSA = target: T4, BSA (UniProt P02769 25-607); assay: as above
T4 construct: Control protein on beads
T4 sequence (P02769 25-607 limits assumed): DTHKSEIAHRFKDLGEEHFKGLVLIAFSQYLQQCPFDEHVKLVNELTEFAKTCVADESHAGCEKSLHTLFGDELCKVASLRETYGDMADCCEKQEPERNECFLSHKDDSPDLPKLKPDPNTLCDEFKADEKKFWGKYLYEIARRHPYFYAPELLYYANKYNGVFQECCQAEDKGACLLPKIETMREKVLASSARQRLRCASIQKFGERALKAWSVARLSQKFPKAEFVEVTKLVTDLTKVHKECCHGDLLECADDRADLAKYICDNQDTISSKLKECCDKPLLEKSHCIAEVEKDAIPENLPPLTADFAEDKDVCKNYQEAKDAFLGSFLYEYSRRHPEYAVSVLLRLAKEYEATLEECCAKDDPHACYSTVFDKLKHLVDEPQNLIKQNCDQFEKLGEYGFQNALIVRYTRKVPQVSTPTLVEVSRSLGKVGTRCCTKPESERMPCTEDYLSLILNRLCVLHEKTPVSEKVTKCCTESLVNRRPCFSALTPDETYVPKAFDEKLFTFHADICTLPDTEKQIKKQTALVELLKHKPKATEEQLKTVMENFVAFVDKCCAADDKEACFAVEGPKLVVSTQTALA

[3] = target: T3, recombinant 6x-His-tagged p32 protein …; assay: T7 phage clone binding to immobilized p32 (FIG. 3)
[4] = target: T3, recombinant 6x-His-tagged p32 protein …; assay: T7 phage binding to immobilized p32; reference LyP-1-displaying phage
[5] = target: T2, ligand-binding b1b2 domain of the cell …; assay: uPA-treated T7 phage binding to NRP-1 b1b2; reference untreated phage

Binder | binding result [2] | binding result (BSA) | further results
CKRGARSTC (also: cyclic (CycTT1), ring type not given here, used labeled and unlabeled, label and position not given here, Free synthetic peptide used in fluorescence polarization assays; also called CycTT1; cyclic TT1 Peptide) [synthetic TT1 Peptide CKRGARSTC (SEQ ID NO: 3), cyclic] | – | – | binding result [1]: no binding
CTRGSRSKC (not fully specified (bridges); cysteine pairing not given here; also: displayed on T7 phage, also called RGXRS-displaying phage) [T7 phage displaying CTRGSRSKC (SEQ ID NO: 177)] | no binding | no binding | –
SMNEVRKR (also called phage clone selected on NRP-1 b1b2 domain) [T7 phage displaying SMNEVRKR (SEQ ID NO: 192)] | – | – | binding result [3]: no binding
CKRGNRSVC (not fully specified (bridges); cysteine pairing not given here; also: displayed on T7 phage, also called RGXRS-displaying phage) [T7 phage displaying CKRGNRSVC (SEQ ID NO: 178)] | no binding | no binding | –
CVRGGRARC (not fully specified (bridges); cysteine pairing not given here; also: displayed on T7 phage, carries RGGRA rather than RGXRS) [T7 phage displaying CVRGGRARC (SEQ ID NO: 183)] | no binding | – | –
SGVSRDR (also called phage clone selected on NRP-1 b1b2 domain) [T7 phage displaying SGVSRDR (SEQ ID NO: 191)] | – | – | binding result [3]: no binding
CQRGTRSRC (not fully specified (bridges); cysteine pairing not given here; also: displayed on T7 phage, also called RGXRS-displaying phage) [T7 phage displaying CQRGTRSRC (SEQ ID NO: 182)] | no binding | no binding | –
CKRGARSTC (The phage protein it is fused to is not described; also called TT1 phage; TT phage) [T7 phage displaying the TT1 peptide CKRGARSTC (SEQ ID NO: 3)] | no binding | no binding | fold stronger phage binding than the LyP-1 peptide [4]: ~15 fold
SRLGRMR (also called phage clone selected on NRP-1 b1b2 domain) [T7 phage displaying SRLGRMR (SEQ ID NO: 193)] | – | – | binding result [3]: no binding
GRGGRSRKLAAALE (the C-terminal KLAAALE element is encoded by the phage genomic DNA; also called RGXRS-displaying phage) [T7 phage displaying GRGGRSRKLAAALE (SEQ ID NO: 161)] | no binding | no binding | –
CARGKRSLC (not fully specified (bridges); cysteine pairing not given here; also: displayed on T7 phage, also called RGXRS-displaying phage) [T7 phage displaying CARGKRSLC (SEQ ID NO: 184)] | no binding | no binding | –
CKRGAR (not fully specified, not shown: T7 phage capsid (display carrier)) [uPA-treated T7 phage displaying the TT1 peptide] | – | – | fold enhancement of binding [5]: 180 fold
CARGARTKC (not fully specified (bridges); cysteine pairing not given here; also: displayed on T7 phage, carries RGART rather than RGXRS) [T7 phage displaying CARGARTKC (SEQ ID NO: 176)] | no binding | – | –
CKRGSRSSC (not fully specified (bridges); cysteine pairing not given here; also: displayed on T7 phage, also called RGXRS-displaying phage) [T7 phage displaying CKRGSRSSC (SEQ ID NO: 181)] | no binding | no binding | –
RKRGGRS (also called RGXRS-displaying phage) [T7 phage displaying RKRGGRS (SEQ ID NO: 166)] | no binding | no binding | –
RMRRIDR (also called phage clone selected on NRP-1 b1b2 domain) [T7 phage displaying RMRRIDR (SEQ ID NO: 190)] | – | – | binding result [3]: no binding

— patent US20210188909A1 (SANFORD BURNHAM PREBYS MEDICAL DISCOVERY INSTITUTE, published 2021)
